Assay [1] deals with T1, Human GPRC5D Protein-VLP (human, UniProt Q9NZD1 1-345).
T1 construct: Bought reagent; also called GPRC5D-VLP; target antigen
Nature of the assay: phage ELISA, coated antigen, detection anti-M13 then HRP anti-mouse IgG. Background: ELISA stands for enzyme-linked immunosorbent assay.

Assay [2] concerns the target T2, Biotinylated Recombinant human BAFFR Protein (human, UniProt Q96RJ3 7-71, limits assumed, biotinylated).
T2 construct: The label says that it carries a his tag; also called BAFFR-his-Bio
T2 sequence (looked up): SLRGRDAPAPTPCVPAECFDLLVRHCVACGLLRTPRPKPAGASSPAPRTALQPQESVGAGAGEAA
Described as above.

The target in assay [3] is T3, Biotinylated Human IL-10 Protein (human, UniProt P22301 19-178, biotinylated).
T3 construct: also called IL10-Bio
T3 sequence (P22301 19-178 limits assumed): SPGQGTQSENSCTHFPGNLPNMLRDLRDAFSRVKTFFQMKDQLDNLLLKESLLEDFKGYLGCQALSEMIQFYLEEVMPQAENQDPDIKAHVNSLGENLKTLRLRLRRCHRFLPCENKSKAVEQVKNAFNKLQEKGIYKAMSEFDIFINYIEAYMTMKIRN
The description is as above.

In assay [4] the target is T4, Streptavidin (UniProt P22629 37-163, limits assumed).
T4 construct: also called SA
T4 sequence (P22629 37-163 limits assumed): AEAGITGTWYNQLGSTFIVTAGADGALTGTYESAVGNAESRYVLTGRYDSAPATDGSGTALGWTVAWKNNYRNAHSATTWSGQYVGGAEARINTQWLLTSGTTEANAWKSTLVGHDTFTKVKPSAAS
The description is as above.

Assay [5] concerns the target T5, human GPRC5D expressed on the cell surface (CHO-K1-GPRC5D cells; MM1S, U266, 8226, H929 cells) (human, UniProt Q9NZD1 1-345).
T5 construct: whole, on cells; The cell line used is named under assay or readout in each row; also called GPRC5D-positive cells
Nature of the assay: FACS titration (300 nM to 0.00384 nM) on CHO-K1-GPRC5D cells.

Assay [6] addresses T6, murine-derived GPRC5D overexpressed on CHOS cells (CHOS-mouseGPRC5D) (mouse (murine-derived), UniProt Q9JIL6 1-344).
T6 construct: whole, on cells; also called GPRC5D murine-derived positive cell line
T6 sequence (looked up): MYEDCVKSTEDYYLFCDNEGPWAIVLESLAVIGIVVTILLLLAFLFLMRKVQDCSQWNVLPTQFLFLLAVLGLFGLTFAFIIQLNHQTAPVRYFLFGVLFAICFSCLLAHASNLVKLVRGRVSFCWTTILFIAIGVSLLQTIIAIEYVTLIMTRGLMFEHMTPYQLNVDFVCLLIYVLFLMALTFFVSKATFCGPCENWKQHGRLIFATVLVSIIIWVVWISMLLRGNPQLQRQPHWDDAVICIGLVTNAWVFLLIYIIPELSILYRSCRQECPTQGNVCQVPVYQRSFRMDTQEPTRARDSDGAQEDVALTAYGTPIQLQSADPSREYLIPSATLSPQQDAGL
Nature of the assay: FACS titration on CHOS-mouse-GPRC5D cells (lower graph).

The target in assay [7] is T7, monkey-derived GPRC5D overexpressed on CHOS cells (CHOS-macaqueGPRC5D) (macaque (monkey-derived)).
T7 construct: whole, on cells; also called CHOS-macaqaueGPRC5D; GPRC5D monkey-derived positive cell line
Nature of the assay: FACS titration on CHOS-macaque-GPRC5D cells (upper graph).

Assay [8] addresses T1, Human GPRC5D Protein-VLP. Nature of the assay: ELISA, coated antigen, purified IgG-form antibody, detection HRP anti-human IgG.
In assay [9] the target is T2, Biotinylated Recombinant human BAFFR …. The description is as above.
Assay [10] deals with T3, Biotinylated Human IL-10 Protein. The assay is described as above.
Assay [11] concerns the target T4, Streptavidin. The description is as above.
Assay [12] has as its target T5, human GPRC5D expressed on the cell …. Nature of the assay: cell-based or functional assay.
Assay [13] shares this target. Nature of the assay: cell-based or functional assay. The source holds these as a separate data set.
The target is the same in assay [14]. Nature of the assay: cell-based or functional assay. The source holds these as a separate data set.

Usually EC50 stands for the concentration at which the effect is half-maximal. Low readings indicate an effect from little substance, high ones a need for much substance. What is called EC50 (read off the curve) is the concentration needed to bring the measured effect to its halfway point. The low end stands for an effect from little substance, the high end for a need for much substance.

T5 sequence (Q9NZD1 whole entry): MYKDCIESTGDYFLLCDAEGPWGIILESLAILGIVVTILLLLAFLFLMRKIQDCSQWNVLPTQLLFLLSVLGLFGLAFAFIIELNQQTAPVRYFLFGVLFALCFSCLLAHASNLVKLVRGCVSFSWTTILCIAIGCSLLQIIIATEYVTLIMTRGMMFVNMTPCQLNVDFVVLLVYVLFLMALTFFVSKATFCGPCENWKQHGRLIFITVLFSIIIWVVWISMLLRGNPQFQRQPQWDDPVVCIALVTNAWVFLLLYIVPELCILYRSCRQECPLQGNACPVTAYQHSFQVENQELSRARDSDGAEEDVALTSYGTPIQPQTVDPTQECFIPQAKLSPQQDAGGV
T1 sequence (Q9NZD1 whole entry): as above

B1: clone #41, single domain antibody displayed as monoclonal phage (phage level) (VHH)
VHH: EVQLLESGGGLVQPGGSLRLSCAASGFSFSGYIMGWVRQAPGKGLEWVSSTSSSGTETYYADSVKGRFTISRDNSKNTLYLQMNSLRAEDTAVYYCARYYSKYGRSYHVDSWGQGTLVTVSS
notes: Tested as a monoclonal phage antibody (M13 display, detected with anti-M13); also called clone number 41
B1: the binding result with Human GPRC5D Protein-VLP [1] is reported as “binds”; in [2], “no binding”; in [3], “no binding”; with Streptavidin [4], “no binding”.

B2: Clone 41, antibody in the IgG form (protein level) (antibody, V domains shown)
VH: EVQLLESGGGLVQPGGSLRLSCAASGFSFSGYIMGWVRQAPGKGLEWVSSTSSSGTETYYADSVKGRFTISRDNSKNTLYLQMNSLRAEDTAVYYCARYYSKYGRSYHVDSWGQGTLVTVSS
notes: Expressed from an IgG expression plasmid in CHOS cells, purified by Protein A 'into the IgG form', detected with anti-human IgG Fc gamma; also called anti-GPRC5D IgG
On to B2, for which it took 41 nM to reach a half-maximal effect in [5] (EC50). For the same molecule, the “TOP (MFI)” value in assay [5] amounted to 3690 MFI. Further, the binding result in assay [6] is recorded as “binds”; in the assay with Human GPRC5D Protein-VLP [8], “binds”; in [9] it was “no binding”; in [10], “no binding”; in the assay with Streptavidin [11], “no binding”. Besides, in assay [7], the “EC50 (read off the curve)” value is ~7 nM.

B3: CAR 2254 (Benchmark1), on CAR-T cells (other)
chain: GSQVQLVQSGAEVKKPGASVKVSCKASGYSFTGYTMNWVRQAPGQGLEWMGLINPYNSDTNYAQKLQGRVTMTTDTSTSTAYMELRSLRSDDTAVYYCARVALRVALDYWGQGTLVTVSSGGGGSGGGGSGGGGSDIQMTQSPSSLSASVGDRVTITCKASQNVATHVGWYQQKPGKAPKRLIYSASYRYSGVPSRFSGSGSGTEFTLTISNLQPEDFATYYCQQYNRYPYTFGQGTKLEIKSRFVPVFLPAKPTTTPAPRPPTPAPTIASQPLSLRPEACRPAAGGAVHTRGLDFACDIYIWAPLAGTCGVLLLSLVITLYCNHRNKRGRKKLLYIFKQPFMRPVQTTQEEDGCSCRFPEEEEGGCELRVKFSRSADAPAYQQGQNQLYNELNLGRREEYDVLDKRRGRDPEMGGKPRRKNPQEGLYNELQKDKMAEAYSEIGMKGERRRGKGHDGLYQGLSTATKDTYDALHMQALPPR
With B3, in assay [12], the “CD107a+/CAR+CD8+% after co-incubation with 8226 (GPRC5D+) cells” value came out at 45%, the “CD107a+/CAR+CD8+% after co-incubation with MM.1S (GPRC5D+) cells” value is 50.7% and the “CD107a+/CAR+CD8+% after co-incubation with U266 (GPRC5D+) cells” value turned out to be 9.68%. Besides, in [13], the “IFN-γ (IFN+/CAR+ %) after co-incubation with 8226-luc (GPRC5D+) cells” value is 25.1%, the “IFN-γ (IFN+/CAR+ %) after co-incubation with H929-luc (GPRC5D+) cells” value came to 12.2%, the “IFN-γ (IFN+/CAR+ %) after co-incubation with MM1.s-luc (GPRC5D+) cells” value worked out at 31.1% and the “IFN-γ (IFN+/CAR+ %) after co-incubation with U266-luc (GPRC5D+) cells” value worked out at 5.25%. In addition, in assay [13], the “TNF-α (TNFα+/CAR+ %) after co-incubation with 8226-luc (GPRC5D+) cells” value came out at 12%, the “TNF-α (TNFα+/CAR+ %) after co-incubation with H929-luc (GPRC5D+) cells” value amounted to 5.21%, the “TNF-α (TNFα+/CAR+ %) after co-incubation with MM1.s-luc (GPRC5D+) cells” value came out at 17.7% and the “TNF-α (TNFα+/CAR+ %) after co-incubation with U266-luc (GPRC5D+) cells” value was 1.12%. Also, in assay [14], the “Proliferation fold, 1st round stimulation by target cells 8226” value was 7.15 fold; the “Proliferation fold, 2nd round stimulation by target cells 8226” value is 41.9 fold; the “Proliferation fold, 3rd round stimulation by target cells 8226” value was 101 fold; the “Proliferation fold, 4th round stimulation by target cells 8226” value is 172 fold. Moreover, in [14], the “Proliferation fold, 5th round stimulation by target cells 8226” value was determined as 240 fold; the “Proliferation fold, 6th round stimulation by target cells 8226” value is 321 fold; the “Proliferation fold, 7th round stimulation by target cells 8226” value is 313 fold.

B4: clone #18, single domain antibody displayed as monoclonal phage (phage level) (VHH)
VHH: QVQLQQWGAGLLKPSETLSLTCAVYGGSFSGYYWSWIRQPPGKGLEWIGEINHSGSTNYNPSLKSRVTISVDTSKNQFSLKLSSVTAADTAVYYCARARRYGGRTRFDPWGQGTLVTVSS
notes: Tested as a monoclonal phage antibody (M13 display, detected with anti-M13); also called clone number 18
Consider B4, for which the binding result in the assay with Human GPRC5D Protein-VLP [1] is “binds”; in assay [2] it was “no binding”; in [3], “no binding”; with Streptavidin [4], “no binding”.

B5: Clone 18, antibody in the IgG form (protein level) (antibody, V domains shown)
VH: QVQLQQWGAGLLKPSETLSLTCAVYGGSFSGYYWSWIRQPPGKGLEWIGEINHSGSTNYNPSLKSRVTISVDTSKNQFSLKLSSVTAADTAVYYCARARRYGGRTRFDPWGQGTLVTVSS
notes: as for B2
For B5, the EC50 in assay [5] was determined as 1.58 nM. Moreover, the “TOP (MFI)” value in assay [5] turned out to be 3460 MFI. The entries for the “EC50 (read off the curve)” value in [6] and in assay [7] were ~2 nM and ~10 nM, respectively. Further, the binding result with Human GPRC5D Protein-VLP [8] is listed as “binds”; in assay [9], “no binding”; in assay [10], “no binding”; in the assay with Streptavidin [11] it was “no binding”.

B6: clone #39, single domain antibody displayed as monoclonal phage (phage level) (VHH)
VHH: EVQLLESGGGLVQPGGSLRLSCAASGFIFSSYGMGWVRQAPGKGLEWVSSISSSGDYTYYADSVKGRFTISRDNSKNTLYLQMNSLRAEDTAVYYCARMSFRRYDHWGQGTLVTVSS
notes: Tested as a monoclonal phage antibody (M13 display, detected with anti-M13); also called clone number 39
Turning to B6, the binding result in the assay with Human GPRC5D Protein-VLP [1] is “binds”; in assay [2], “no binding”; in assay [3] it was “no binding”; in the assay with Streptavidin [4], “no binding”.

B7: Clone 39, antibody in the IgG form (protein level) (antibody, V domains shown)
VH: EVQLLESGGGLVQPGGSLRLSCAASGFIFSSYGMGWVRQAPGKGLEWVSSISSSGDYTYYADSVKGRFTISRDNSKNTLYLQMNSLRAEDTAVYYCARMSFRRYDHWGQGTLVTVSS
notes: as for B2
In assay [5], B7 yielded an EC50 of 6.93 nM. The “TOP (MFI)” value in assay [5] worked out at 2800 MFI. Besides, the binding result in [6] is on record as “binds”; with Human GPRC5D Protein-VLP [8], “binds”; in [9], “no binding”; in [10], “no binding”; in the assay with Streptavidin [11], “no binding”.

B8: GPRC5D CAR 2436 (#39), on CAR-T cells (other)
chain: EVQLLESGGGLVQPGGSLRLSCAASGFIFSSYGMGWVRQAPGKGLEWVSSISSSGDYTYYADSVKGRFTISRDNSKNTLYLQMNSLRAEDTAVYYCARMSFRRYDHWGQGTLVTVSSFVPVFLPAKPTTTPAPRPPTPAPTIASQPLSLRPEACRPAAGGAVHTRGLDFACDIYIWAPLAGTCGVLLLSLVITLYCNHRNKRGRKKLLYIFKQPFMRPVQTTQEEDGCSCRFPEEEEGGCELRVKFSRSADAPAYQQGQNQLYNELNLGRREEYDVLDKRRGRDPEMGGKPRRKNPQEGLYNELQKDKMAEAYSEIGMKGERRRGKGHDGLYQGLSTATKDTYDALHMQALPPR
As for B8, in assay [12], the “CD107a+/CAR+CD8+% after co-incubation with 8226 (GPRC5D+) cells” value came to 76.5%, the “CD107a+/CAR+CD8+% after co-incubation with MM.1S (GPRC5D+) cells” value stood at 63.5% and the “CD107a+/CAR+CD8+% after co-incubation with U266 (GPRC5D+) cells” value amounted to 78.8%. In addition, in assay [13], the “IFN-γ (IFN+/CAR+ %) after co-incubation with 8226-luc (GPRC5D+) cells” value turned out to be 54.8%, the “IFN-γ (IFN+/CAR+ %) after co-incubation with H929-luc (GPRC5D+) cells” value is 57.6%, the “IFN-γ (IFN+/CAR+ %) after co-incubation with MM1.s-luc (GPRC5D+) cells” value was found to be 50.9% and the “IFN-γ (IFN+/CAR+ %) after co-incubation with U266-luc (GPRC5D+) cells” value stood at 49%. In assay [13], the “TNF-α (TNFα+/CAR+ %) after co-incubation with 8226-luc (GPRC5D+) cells” value was found to be 45%, the “TNF-α (TNFα+/CAR+ %) after co-incubation with H929-luc (GPRC5D+) cells” value came to 51.6%, the “TNF-α (TNFα+/CAR+ %) after co-incubation with MM1.s-luc (GPRC5D+) cells” value was 38.5% and the “TNF-α (TNFα+/CAR+ %) after co-incubation with U266-luc (GPRC5D+) cells” value was 42.5%. In [14], the “Proliferation fold, 1st round stimulation by target cells 8226” value was determined as 10.1 fold; the “Proliferation fold, 2nd round stimulation by target cells 8226” value was found to be 51.2 fold; the “Proliferation fold, 3rd round stimulation by target cells 8226” value was 146 fold; the “Proliferation fold, 4th round stimulation by target cells 8226” value amounted to 330 fold. In addition, in [14], the “Proliferation fold, 5th round stimulation by target cells 8226” value is 595 fold; the “Proliferation fold, 6th round stimulation by target cells 8226” value came out at 1160 fold; the “Proliferation fold, 7th round stimulation by target cells 8226” value stood at 2050 fold.

For the origin of these results see patent publication US20250049852A1 (SHANGHAI IASO BIOTECHNOLOGY, published 2025).
